Laboratory results: patent US20210275685A1

Assays:
[1] = molecular target: human ADAM9 (Disintegrin and Metalloproteinase Domain-containing Protein 9), on cells (human) (UniProt Q13443); experiment: IHC staining of human tumour tissue: Prostate CA (ILS20758-D3); antibody at 0.4 µg/mL
[2] = molecular target: human ADAM9 (Disintegrin and Metalloproteinase Domain-containing Protein 9), on cells (human) (UniProt Q13443); experiment: IHC staining of human tumour tissue: Breast CA (USA-00329); antibody at 0.4 µg/mL
[3] = molecular target: human ADAM9 (Disintegrin and Metalloproteinase Domain-containing Protein 9), on cells (human) (UniProt Q13443); experiment: IHC staining of human tumour tissue: NSCLC (ILS10901), Adenocarcinoma; antibody at 0.4 µg/mL
[4] = molecular target: human ADAM9 (Disintegrin and Metalloproteinase Domain-containing Protein 9), on cells (human) (UniProt Q13443); experiment: IHC staining of human tumour tissue: NSCLC (ILS7223), Squamous Cell Carcinoma; antibody at 0.4 µg/mL
[5] = molecular target: human ADAM9 (Disintegrin and Metalloproteinase Domain-containing Protein 9), on cells (human) (UniProt Q13443); experiment: IHC staining of human tumour tissue: Colon CA (ILS11330 B); antibody at 0.4 µg/mL
[6] = molecular target: human ADAM9 (Disintegrin and Metalloproteinase Domain-containing Protein 9), on cells (human) (UniProt Q13443); experiment: IHC staining of human tumour tissue: Gastric CA (ILS-450 A); antibody at 0.4 µg/mL
[7] = molecular target: human ADAM9 (Disintegrin and Metalloproteinase Domain-containing Protein 9), on cells (human) (UniProt Q13443); experiment: IHC staining of human tumour tissue: NSCLC (ILS10108), Large Cell Carcinoma; antibody at 0.4 µg/mL
[8] = molecular target: human ADAM9 (Disintegrin and Metalloproteinase Domain-containing Protein 9), on cells (human) (UniProt Q13443); experiment: IHC staining of human tumour tissue: Colon CA (AGR-00237 B); antibody at 0.4 µg/mL
[9] = molecular target: human ADAM9 (Disintegrin and Metalloproteinase Domain-containing Protein 9), on cells (human) (UniProt Q13443); experiment: IHC staining of human tumour tissue: Colon CA (ILS10369 B); antibody at 0.4 µg/mL
[10] = molecular target: human ADAM9 (Disintegrin and Metalloproteinase Domain-containing Protein 9), on cells (human) (UniProt Q13443); experiment: IHC staining of human tumour tissue: Colon CA (ILS10341 B); antibody at 0.4 µg/mL
[11] = molecular target: human ADAM9 (Disintegrin and Metalloproteinase Domain-containing Protein 9), on cells (human) (UniProt Q13443); experiment: IHC staining of human tumour tissue: NSCLC (ILS7115 D), Squamous Cell Carcinoma; antibody at 0.4 µg/mL

Chain of human ADAM9 (Disintegrin and Metalloproteinase Domain-containing Protein 9), on cells (human) (Q13443 206-819): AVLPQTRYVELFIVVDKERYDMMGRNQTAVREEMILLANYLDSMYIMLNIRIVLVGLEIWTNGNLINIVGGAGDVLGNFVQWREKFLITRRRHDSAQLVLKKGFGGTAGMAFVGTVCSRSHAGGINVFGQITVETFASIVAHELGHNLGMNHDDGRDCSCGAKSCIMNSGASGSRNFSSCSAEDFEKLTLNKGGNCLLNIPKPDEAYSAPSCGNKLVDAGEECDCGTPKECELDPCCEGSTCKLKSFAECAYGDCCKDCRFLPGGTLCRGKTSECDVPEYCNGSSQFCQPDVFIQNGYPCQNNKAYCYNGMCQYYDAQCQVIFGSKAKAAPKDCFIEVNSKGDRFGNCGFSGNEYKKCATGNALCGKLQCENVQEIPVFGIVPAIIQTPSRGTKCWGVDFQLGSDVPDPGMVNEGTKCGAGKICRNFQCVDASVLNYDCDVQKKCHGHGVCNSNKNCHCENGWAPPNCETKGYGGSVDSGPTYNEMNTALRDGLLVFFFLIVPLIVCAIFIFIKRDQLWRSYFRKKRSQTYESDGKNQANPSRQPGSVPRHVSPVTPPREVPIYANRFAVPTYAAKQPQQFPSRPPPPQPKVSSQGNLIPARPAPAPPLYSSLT

Score [1]: 3 | Score [2]: 3 | Score [3]: 3 | Score [4]: 3 | Score [5]: 2 | Score [6]: 2 | Score [7]: 3 | Score [8]: 3 | Score [9]: 1 | Score [10]: 2 | Score [11]: 1
B1: MAB-A (antibody, V domains shown)
VH: QVQLQQPGAELVKPGASVKLSCKASGYTFTSYWMHWVKQRPGQGLEWIGEIIPINGHTNYNEKFKSKATLTLDKSSSTAYMQLSSLASEDSAVYYCARGGYYYYGSRDYFDYWGQGTTLTVSS
VL: DIVLTQSPASLAVSLGQRATISCKASQSVDYDGDSYMNWYQQIPGQPPKLLIYAASDLESGIPARFSGSGSGTDFTLNIHPVEEEDAATYYCQQSHEDPFTFGGGTKLEIK
